Molecular target: recombinant soluble canine IL-10 receptor alpha chain (R1), extra-cytoplasmic domain (canine)
Assay: SPR; rcasIL-10R1 covalently immobilised (EDC/NHS) on a CM5 chip to 1000 RU, Biacore T100; cytokines in PBS with 0.05% Tween 20 applied for 2 min 30 s; each sample evaluated twice, mean ± SD of RU

- RU at 31.2 ng/mL: 211 RU
- RU at 125 ng/mL (plateau): 1720 RU
- binding equilibrium constant (EC80): 51.4 nM
Substance: recombinant canine IL-10 (from UniProt P48411 20-181) (ligand)

From paper PMC7815104
